This note sets out measurements from paper PMC7983947, “ADP-Ribosylation Regulates the Signaling Function of IFN-γ” (Frontiers in Immunology, 2021).

For series [1], the target named is T1, recombinant IFNR1-Fc (extracellular domain of interferon receptor 1) (UniProt P15261).
T1 sequence: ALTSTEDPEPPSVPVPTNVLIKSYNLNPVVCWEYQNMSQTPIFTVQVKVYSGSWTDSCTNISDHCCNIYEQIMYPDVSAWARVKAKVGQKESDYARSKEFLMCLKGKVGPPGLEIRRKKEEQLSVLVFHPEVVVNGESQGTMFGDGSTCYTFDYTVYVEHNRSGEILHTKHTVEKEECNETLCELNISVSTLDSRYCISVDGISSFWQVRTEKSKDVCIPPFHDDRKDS

Series [2] deals with the molecule itself. Briefly: non-reducing SDS-PAGE; murine serum spiked with IFN-γ, incubated with shed ARTC2.2 and 32P-NAD+; gel run under non-reducing conditions, autoradiography.

B1: ADP-ribosylated IFN-γ (ligand)
chain: HGTVIESLESLNNYFNSSGIDVEEKSLFLDIWRNWQKDGDMKILQSQIISFYLRLFEVLKDNQAISNNISVIESHLITTFFSNSKAKKDAFMSIAKFEVNNPQVQRQAFNELIRVVHQLLPESSLRKRKRSRC
modifications: ADP-ribosyl-arginine at R128
B1: in series [1], the phosphorylation of STAT1 in primary peritoneal macrophages (flow cytometry, serial titrations); loss of potency against unmodified IFN-γ; restored by de-ADP-ribosylation with ARH1 stood at 4 fold.

B2: recombinant murine IFN-γ (ligand, UniProt P01580 23-155, looked up)
chain: HGTVIESLESLNNYFNSSGIDVEEKSLFLDIWRNWQKDGDMKILQSQIISFYLRLFEVLKDNQAISNNISVIESHLITTFFSNSKAKKDAFMSIAKFEVNNPQVQRQAFNELIRVVHQLLPESSLRKRKRSRC
notes: interferon gamma, murine, recombinant; also called interferon-gamma; native IFN-γ homodimer; source: bought: Immunotools
As for B2, in series [2], the binding result is reported as “binds”.
